The results in this text go back to paper PMC5726015, “Selection, characterization, and thermal stabilization of llama single domain antibodies towards Ebola virus glycoprotein” (Microbial Cell Factories, 2017).

The labels stand for the following.
B1: EBOV-GP-A8-neg+ (VHH)
VHH: EVQLVESGGGLVQAGDSLQLSCAAPGRPVRTYTMGWFRQAPGKEREFVCANNWRGTRYAGSVRGRFSCSRDNSKNTVYLQMNSLKPEDTAVYYCACAVTADLLLSGNYFRGDDYDYWGQGTQVTVSS
B2: EBOV-GP-A8-fneg+ (VHH)
VHH: B1 VHH with C96S
notes: also called Bt-sdAb-neg+
B3: EBOV-GP-G6-neg+ (VHH)
VHH: DVQLVESGGGLVQAGGSLRISCAASGGALSDYNMGWFRQAPGKEREFVCVVTWSGGSTRYADSVNGRFTCSRDNAKNTVYLQMNSLKPEDTAVYYCAAAPLTPFQSLGDMKAYNYWGQGTQVTVSS
notes: also called Bt-sdAb-neg+
B4: EBOV-GP-H7-neg+ (VHH)
VHH: DVQLVESGGGLVQAGGSLRLSCAASSGTFSSYTMGWFRQAPGKERELVCRLSQSLTTLYADSVKGRFTCSRDNAENTVYLQMNSLKPEDTGVYYCAAHPGTYGSAWLISPHDYAYWGQGTQVTVSS
notes: also called EBOV-H7-neg+; Bt-sdAb-neg+
B5: EBOV-GP-D1 (VHH)
VHH: EVQLQASGGGSVPPGGSLRLSCTASLRAFSTYTMGWFRQAPGKEREFVAASNWRGTDFHDSVRGRFIISRDNTEKTVDLQMNSLKPEDTAIYYCAADGSTWLKRSDYSYWGQGTQVTVS
B6: EBOV-GP-B5 (VHH)
VHH: B5 VHH with S11L, P13Q, P14A, R63K, E74K
B7: EBOV-GP-E7 (VHH)
VHH: EVQLQASGGGLVQPRGSLRLSCAASGSIFSINAMGWYRQTPEKQRELVATISSSGSTKYGDSVKGRFTISRDNAKNTVYLQMNSLKPEDTAVYYCNTQTAGLVADWGTSHYDYWGQGVQVTVS
B8: EBOV-GP-G6 (VHH)
VHH: DVQLQASGGGLVQAGGSLRISCAASGGALSDYNMGWFRQAPGKEREFVAVVTWSGGSTRYADSVNGRFTISRDNAKNTVYLQMNSLKPEDTAVYYCAAAPLTPFQSLGDMKAYNYWGQGTQVTVS
B9: EBOV-GP-C12 (VHH)
VHH: EVQLQASGGGLVQPGGSLRLSCTASGSIFSINAMGWYRQTPRKERELVAAISEGGSTKYGDSVKGRFTISRDFAKNTQMVYLQMNSLKAEDTAVYYCKAQTEGPIADWGTSQYEYWGQGTQVTVS
B10: EBOV-GP-B11 (VHH)
VHH: EVQLQASGGGLVQTGGSLRLACAGSGRSFNNYGMGWFRQAPGKERQFVAAISGNDHTTHYSDSVKGRFTISRDNAKTTVYLQMNSLKPEDTAVYYCAADRLGSFFFPRASPSDYGYWGQGTQVTVS
B11: EBOV-GP-A8 (VHH)
VHH: EVQLQASGGGLAQAGGSLQLSCAAPGRPVRTYTMGWFRQAPGKEREFVAANNWRGTRYAGSVRGRFSISRDNSKNTVYLQMNSLKPEDTAVYYCACAVTADLLLSGNYFRGDDYDYWGQGTQVTVS
notes: also called Bt-EBOV-GP-A8
B12: EBOV-GP-H7 (VHH)
VHH: DVQLQASGGGLVQAGGSLRLSCAASSGTFSSYTMGWFRQAPGKERELVARLSQSLTTLYADSVKGRFTISRDNAENTVYLQMNSLKPEDTGVYYCAAHPGTYGSAWLISPHDYAYWGQGTQVTVS
B13: R2H11 (VHH)
VHH: B7 VHH with P14A, R15G, L18T, A24G, L102P
B14: R2H1 (VHH)
VHH: EVLLQASGGGLVQPGGSLRLSCAASGLIFSINVMGWYRQTPGKQRELVASISRDDSTKYADSVKGRFTISRDNAKNTVYLQMNSLKPEDTAVYYCNTQTEGPVADWGTSHYDYWGQGTQVTVS
B15: R2D10 (VHH)
VHH: EVQLQASGGGLVEPGGPLRLSCAVSGINFNINHWGWYRQAPGKQREWVATIAIGGATDYADSLKGRFTISRDNMKNTVYLQMNSLRPEDTAVYYCNGVGSKWSDRWGQGTQVTVS
B16: R3F8 (VHH)
VHH: B15 VHH with P17S, L63V
B17: R2G2 (VHH)
VHH: B15 VHH with P17S
B18: R2C8 (VHH)
VHH: B15 VHH with P17S, G55S, T68A, G107D
B19: R3B7 (VHH)
VHH: B10 VHH with E1D, T77S
B20: R2A1 (VHH)
VHH: B11 VHH with A12V, G15R
B21: R3C11 (VHH)
VHH: B11 VHH with E1D, A12V, K43E, I68V, F109Y, Q119L
B22: R2E6 (VHH)
VHH: B11 VHH with E1D, A12V, K43M, Y58H
B23: R3H8 (VHH)
VHH: B11 VHH with A12V, R27H
B24: R3G10 (VHH)
VHH: B11 VHH with L11S, A12V, I68T
B25: R2B4 (VHH)
VHH: B11 VHH with A12V, V98E
B26: R2E4 (VHH)
VHH: B11 VHH with A12V
B27: R3F12 (VHH)
VHH: B12 VHH with T120A

Positions count from the first letter of the chain named.

The target of the first assay is T1, Recombinant EBOV GP without transmembrane domain (Zaire ebolavirus, strain of GP not …, UniProt Q05320).
T1 construct: also called recombinant GP; EBOV rGPdTM; source: bought: IBT Bioservices
In words: SPR. Conditions: both partners purified.
Target sequence in this assay (Q05320 whole entry, looked up, the tested form may be a part): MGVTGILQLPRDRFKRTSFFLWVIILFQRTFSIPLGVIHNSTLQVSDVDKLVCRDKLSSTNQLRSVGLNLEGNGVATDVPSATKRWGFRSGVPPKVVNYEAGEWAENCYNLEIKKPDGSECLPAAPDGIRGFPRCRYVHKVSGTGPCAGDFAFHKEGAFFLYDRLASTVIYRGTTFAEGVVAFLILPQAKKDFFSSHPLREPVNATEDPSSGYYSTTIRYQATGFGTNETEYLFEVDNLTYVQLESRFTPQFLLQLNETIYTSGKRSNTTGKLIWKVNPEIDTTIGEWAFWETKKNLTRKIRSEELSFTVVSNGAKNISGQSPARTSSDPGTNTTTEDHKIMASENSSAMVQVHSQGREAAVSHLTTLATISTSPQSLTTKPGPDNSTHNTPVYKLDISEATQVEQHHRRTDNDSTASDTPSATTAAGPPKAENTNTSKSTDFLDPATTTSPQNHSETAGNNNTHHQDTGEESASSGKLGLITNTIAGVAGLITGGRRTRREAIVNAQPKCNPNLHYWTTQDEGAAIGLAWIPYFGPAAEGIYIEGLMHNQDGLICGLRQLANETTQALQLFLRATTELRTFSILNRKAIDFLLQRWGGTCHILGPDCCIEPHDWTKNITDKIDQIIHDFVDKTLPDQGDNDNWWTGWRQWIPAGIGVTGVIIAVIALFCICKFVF
As to B1, the equilibrium dissociation constant (Kd) (commonly the concentration at which binding is half-saturated) came to 0.95 nM; the koff (usually a measure of how fast the partners let go of each other) came out at 5.8e-05 s⁻¹; the association rate constant (kon) (as a rule, the second-order rate constant of association) was determined as 61000 M⁻¹ s⁻¹. Take B2: the Kd was 0.69 nM, the dissociation rate constant (koff) turned out to be 9.1e-05 s⁻¹ and the kon turned out to be 130000 M⁻¹ s⁻¹. Consider B3, for which the Kd amounted to 44 nM, the koff turned out to be 0.00015 s⁻¹ and the on-rate (kon) was 3500 M⁻¹ s⁻¹. For B4, the Kd was 40 nM, the dissociation rate constant (koff) was determined as 0.0014 s⁻¹ and the on-rate constant (kon) stood at 35000 M⁻¹ s⁻¹.

The next assay addresses T1, Recombinant EBOV GP without …. In words: SPR. The note with it: both partners purified. This is another data set of the same source.
T1 sequence (Q05320 whole entry, looked up, the tested form may be a part): as above
On to B5, for which the Kd worked out at 11 nM, the off-rate (koff) turned out to be 0.00033 s⁻¹ and the on-rate constant (kon) is 30000 M⁻¹ s⁻¹. In the case of B6, the equilibrium dissociation constant (Kd) worked out at 11 nM, the koff stood at 0.00037 s⁻¹ and the on-rate (kon) stood at 34000 M⁻¹ s⁻¹. As to B7, the Kd came to 34 nM, the off-rate (koff) was 0.00011 s⁻¹ and the on-rate constant (kon) worked out at 3500 M⁻¹ s⁻¹. Take B8: the dissociation constant Kd was 2 nM, the off-rate constant (koff) turned out to be 0.00015 s⁻¹ and the association rate constant (kon) is 70000 M⁻¹ s⁻¹. With B9, the dissociation constant Kd is 26.8 nM, the koff was found to be 8.71e-05 s⁻¹ and the kon came to 3280 M⁻¹ s⁻¹. For B10 the same measures were 35.9 nM, 0.00321 s⁻¹ and 89800 M⁻¹ s⁻¹. Turning to B11, the dissociation constant Kd was found to be 2.3 nM, the off-rate (koff) stood at 7.2e-05 s⁻¹ and the association rate constant (kon) was 31000 M⁻¹ s⁻¹. On the same counts, the results for B12 are 17 nM, 0.0003 s⁻¹ and 17000 M⁻¹ s⁻¹.

A further assay deals with Recombinant EBOV GP without transmembrane domain (Zaire ebolavirus, strain of GP not …, UniProt Q05320).
Assay: not given
Conditions: not given
Target sequence in this assay (Q05320 33-501, chain 1 of 2): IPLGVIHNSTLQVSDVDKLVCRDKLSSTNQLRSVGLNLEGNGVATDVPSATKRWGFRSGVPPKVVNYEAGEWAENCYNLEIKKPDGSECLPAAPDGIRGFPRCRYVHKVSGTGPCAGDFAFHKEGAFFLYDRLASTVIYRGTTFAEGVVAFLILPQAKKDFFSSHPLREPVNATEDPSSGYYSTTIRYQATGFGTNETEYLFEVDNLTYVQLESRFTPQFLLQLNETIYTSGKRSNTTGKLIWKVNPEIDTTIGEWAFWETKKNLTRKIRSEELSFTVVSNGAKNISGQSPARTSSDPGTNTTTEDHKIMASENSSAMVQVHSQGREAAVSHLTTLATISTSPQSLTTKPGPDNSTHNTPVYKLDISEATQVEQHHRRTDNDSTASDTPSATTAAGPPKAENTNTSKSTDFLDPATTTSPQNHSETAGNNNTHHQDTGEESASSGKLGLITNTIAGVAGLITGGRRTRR
Target sequence in this assay (O11457 502-650, chain 2 of 2, further chain): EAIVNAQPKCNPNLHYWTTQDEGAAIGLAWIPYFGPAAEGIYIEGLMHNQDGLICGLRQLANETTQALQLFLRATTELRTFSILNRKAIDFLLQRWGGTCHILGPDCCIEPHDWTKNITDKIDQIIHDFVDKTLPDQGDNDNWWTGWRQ
As for B13, the binding result is given as “binds”. B14: the binding result is given as “binds”.

In the case of B15, the binding result is listed as “binds”.

For the molecule B16, the binding result was “binds”. As to B17, the binding result is “binds”.

Regarding B18, the binding result is recorded as “binds”. For B19, the binding result is on record as “binds”. In the case of B20, the binding result is listed as “binds”. In the case of B21, the binding result is given as “binds”. B22: the binding result is on record as “binds”. In the case of B23, the binding result is “binds”. The same measure, in the same setting: the same measure for B24: “binds”; for B25: “binds”; for B26: “binds”. For B27, the binding result was “binds”.
